Measurements: article PMC8776730 (Nature Communications, 2022)

Legend:
[1] = Critical assembly concentration (CAC) by pyrene fluorescence probe; format: physicochemical
Text: In order to study the molecular design and their assembly behavior, we modular designed and synthesized seven molecules (Table 1), which respectively were BIVA probe: M1 (mPEG-GPAKLVFFGC(IR783)GRGD); the non- FAP-α tailoring molecule: M2 (mPEG-AGGKLVFFGC(IR783)GRGD) scrambled response tailoring motif of Gly-Pro-Ala with Ala-Gly-Gly; the non-labeling molecule of M1: M3 (mPEG-GPAKLVFFGCGRGD) removed IR783 labeling; FAP-α tailoring residue of M1: R-M1 (AKLVFFGC(IR783)GRGD); the non-targeting molecule: M4 (mPEG-GPAKLVFFGC(IR783)GDTG) scrambled targeting tailoring motif of Arg-Gly-Asp with Asp-Thr-Gly; the non-labeling molecule of M2: M5 (mPEG-AGGKLVFFGCGRGD) removed IR783 labeling; FAP-α tailoring residue of M3: R-M3 (AKLVFFGCGRGD). All the synthesized procedure (Supplementary Fig. 1) and characterizations of these seven molecules can be found in SI (Supplementary Figs. 2–8). […] Without IR783 labeling, molecules of M3 and M5 decreased the CAC value in solution relative to M1 and M2, which could be attributed to the proximity of the steric hindrance of hydrophilic IR783 to the self-assembly motif (Supplementary Fig. 9). […] The CAC was quantitatively calculated by fluorescence probe of pyrene.

[2] = biological target: T1, FAP-α (Homo sapiens, UniProt Q12884); assay: FAP-α tailoring (cleavage) followed by HPLC and MALDI-TOF; format: biochemical; conditions: 100 μM molecule, FAP-α 50 μM, 12 h; buffer 50 mM Tris, 1 M NaCl, 1 mg/mL BSA, pH 7.5; HPLC (M3, M5), MALDI-TOF (M1)
T1 construct: purchased R&D SYSTEM
T1 sequence (Q12884 1-760): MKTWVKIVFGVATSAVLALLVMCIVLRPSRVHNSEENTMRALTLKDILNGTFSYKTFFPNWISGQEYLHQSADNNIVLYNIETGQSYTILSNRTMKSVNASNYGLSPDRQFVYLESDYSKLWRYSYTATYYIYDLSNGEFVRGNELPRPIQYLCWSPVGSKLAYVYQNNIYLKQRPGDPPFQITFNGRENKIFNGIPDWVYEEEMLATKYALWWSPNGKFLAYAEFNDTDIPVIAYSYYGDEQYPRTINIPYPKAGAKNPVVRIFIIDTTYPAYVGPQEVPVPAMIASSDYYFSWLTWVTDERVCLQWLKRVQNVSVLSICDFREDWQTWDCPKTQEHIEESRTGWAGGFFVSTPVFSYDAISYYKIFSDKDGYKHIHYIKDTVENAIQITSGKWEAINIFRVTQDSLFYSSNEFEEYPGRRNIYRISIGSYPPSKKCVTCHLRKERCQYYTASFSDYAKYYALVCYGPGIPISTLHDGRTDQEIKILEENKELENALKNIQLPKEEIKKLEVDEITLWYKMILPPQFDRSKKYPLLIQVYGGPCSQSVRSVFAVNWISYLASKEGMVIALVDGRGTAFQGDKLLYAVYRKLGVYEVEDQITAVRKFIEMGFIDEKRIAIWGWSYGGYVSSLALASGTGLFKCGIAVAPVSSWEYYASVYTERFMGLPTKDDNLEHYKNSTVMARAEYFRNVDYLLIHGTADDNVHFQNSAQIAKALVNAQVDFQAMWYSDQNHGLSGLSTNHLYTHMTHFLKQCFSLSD
Text: To further investigate the FAP-α specific tailoring and BIVA probe assembly in situ simultaneously (Fig. 4a), the high-performance liquid chromatography (HPLC), TEM, and matrix-assisted laser desorption/ionization time-of-flight (MALDI-TOF) mass spectrometry were applied for the characterizations purpose. To specify the cutting of the response tailoring motif (Gly-Pro-Ala), pre-synthesized molecules of R-M3, M3 and M5 were set as controls. […] Comparing the residues peaks with R-M3, the primary sharp peak at 27.4 min can be identified by the R-M3 control (27.6 min). […] The retention time of M1 after co-incubation with inactivated FAP-α was similar to that of M3 (Supplementary Fig. 14). After hydrolyzed by FAP-α, the residues of M1 in situ assembled into nanofibers structures under the complex buffer (Fig. 4c and Supplementary Fig. 15). […] In order to further evaluate the specificity of M1 for different enzymes, including FAP-α, pepsin, pancreatin, lipase, and BSA, we used ThT (Thioflavin T) as a detection probe (Fig. 4e).
Fig. 4 The FAP-α specific molecule tailoring and inducing in situ assembly. a The illustration the working mechanism of BIVA probe based on FAP-α catalytic hydrolysis. b HPLC curves of M3 and M5 after incubation with FAP-α in buffer. R-M3, M3 and M5 were synthesized controls. The TEM image (c), and the MALDI-TOF (d), results of M1 after tailoring by FAP-α in buffer, the red arrows represent the assembled fibrils of M1 after incubation with FAP-α. e The enzyme specificity of M1 in buffer. Buffer: 50 mM Tris, 1 M NaCl, 1 mg/mL, BSA, pH 7.5; Concentration of M1 and M3: 100 μM; Concentration of FAP-α: 50 μM; incubation time: 12 h. […]

[3] = test system: MIA PaCa-2 tumor; conditions: mouse, in vivo, iv, 16 mg/kg
Description: In order to reduce systemic error and individual difference, we constructed the subcutaneous pancreatic cancer model in mice for quantitatively calculating of the metabolic data.
All the animal experiments were performed in accordance with the Guide for the Care and Use of Laboratory Animals approved by the Committee for Animal Research of the National Center for Nanoscience and Technology. The MIA PaCa-2 tumor-bearing mice were intravenously injected with ICG, M1 and M2 (16 mg/kg), respectively for in vivo fluorescence imaging with in vivo spectrum imaging system. Finally, mice were sacrificed to collect the major organs and tumors for ex vivo fluorescence imaging.

[4] = mouse, in vivo, iv, 16 mg/kg

mPEG-AGGKLVFFGCGRGD [M5, the non-labeling molecule of M2]
Critical assembly concentration (CAC) ([1]; aqueous solution, analyzed based on pyrene fluorescence): >332.7 µM | pyrene I1/I3 ([1]; conc 100 μM): 1.152 | pyrene I1/I3 ([1]; conc 200 μM): 1.176 | pyrene I1/I3 ([1]; conc 300 μM): 1.178 | pyrene I1/I3 ([1]; conc 400 μM): 1.119 | pyrene I1/I3 ([1]; conc 500 μM): 1.173 | pyrene I1/I3 ([1]; conc 600 μM): 1.077 | pyrene I1/I3 ([1]; conc 700 μM): 1.029 | pyrene I1/I3 ([1]; conc 800 μM): 1.021 | pyrene I1/I3 ([1]; conc 900 μM): 0.975 | tailoring (cleavage) by FAP-α [2]: no change of the retention peak

CC1(C)C(/C=C/C=C/C=C/C=C2\N(CCCCS(=O)(=O)O)c3ccc4ccccc4c3C2(C)C)=[N+](CCCCS(=O)(=O)[O-])c2ccc3ccccc3c21 [ICG, indocyanine green]
time to complete metabolic clearance [3]: ≤ 8 h | blood circulation half-life (t1/2) [4]: 2.5 ± 0.5 min
